Reference: patent publication US20170260257A1 (GREEN CROSS, published 2017)

Columns and labels:
[1] = molecular target: HBsAg mutant of patient HCC 22 (hepatocellular carcinoma) (hepatitis B virus); test: sandwich ELISA: plate coated with the antibody, patient blood, detection with sheep anti-HBsAg/peroxidase
[2] = molecular target: HBsAg mutant of patient LC 32 (liver cirrhosis) (hepatitis B virus); test: as above
[3] = molecular target: HBsAg mutant of patient LC 59 (liver cirrhosis) (hepatitis B virus); test: as above
[4] = molecular target: HBsAg mutant of patient CH 33 (chronic hepatitis) (hepatitis B virus); test: as above
[5] = molecular target: HBsAg mutant of patient HCC 11 (hepatocellular carcinoma) (hepatitis B virus); test: as above
[6] = molecular target: HBsAg mutant of patient HCC 94 (hepatocellular carcinoma) (hepatitis B virus); test: as above
[7] = molecular target: HBsAg mutant of patient HCC 1 (hepatocellular carcinoma) (hepatitis B virus); test: as above
[8] = molecular target: HBsAg mutant of patient LC 53 (liver cirrhosis) (hepatitis B virus); test: as above
[9] = molecular target: HBsAg mutant of patient LC 98 (liver cirrhosis) (hepatitis B virus); test: as above
[10] = molecular target: HBsAg mutant of patient CH 34 (chronic hepatitis) (hepatitis B virus); test: as above
[11] = molecular target: T1, HBsAg mutant of patient CH 15 (chronic hepatitis) (hepatitis B virus); test: as above
T1 construct: Positions count on the S (surface) protein

[12] = molecular target: HBsAg mutant of patient CH 32 (chronic hepatitis) (hepatitis B virus); test: as above
[13] = molecular target: HBsAg mutant of patient CH 75 (chronic hepatitis) (hepatitis B virus); test: as above
[14] = molecular target: HBsAg mutant of patient CH 62 (chronic hepatitis) (hepatitis B virus); test: as above
[15] = molecular target: HBsAg of YMDD mutant virus, patient blood sample YMDD #1 (hepatitis B virus); test: as above
[16] = molecular target: HBsAg of YMDD mutant virus, patient blood sample YMDD #5 (hepatitis B virus); test: as above
[17] = molecular target: HBsAg of YMDD mutant virus, patient blood sample YMDD #14 (hepatitis B virus); test: as above
[18] = molecular target: HBsAg of YMDD mutant virus, patient blood sample YMDD #4 (hepatitis B virus); test: as above
[19] = molecular target: HBsAg of YMDD mutant virus, patient blood sample YMDD #10 (hepatitis B virus); test: as above
[20] = molecular target: HBsAg of YMDD mutant virus, patient blood sample YMDD #9 (hepatitis B virus); test: as above
[21] = molecular target: HBsAg of YMDD mutant virus, patient blood sample YMDD #7 (hepatitis B virus); test: as above
[22] = molecular target: HBsAg of YMDD mutant virus, patient blood sample YMDD #6 (hepatitis B virus); test: as above
[23] = molecular target: HBsAg of YMDD mutant virus, patient blood sample YMDD #8 (hepatitis B virus); test: as above
[24] = molecular target: HBsAg of YMDD mutant virus, patient blood sample YMDD #11 (hepatitis B virus); test: as above
[25] = molecular target: HBsAg of YMDD mutant virus, patient blood sample YMDD #3 (hepatitis B virus); test: as above
[26] = molecular target: HBsAg of YMDD mutant virus, patient blood sample YMDD #12 (hepatitis B virus); test: as above
[27] = molecular target: HBsAg of YMDD mutant virus, patient blood sample YMDD #13 (hepatitis B virus); test: as above
[28] = molecular target: G145R HBsAg mutant of patient C** (HBV recurred after liver transplantation) (hepatitis B virus); test: sandwich ELISA: plate coated with the antibody (immobilized antibody rHBIG), patient blood, detection with sheep anti-HBsAg/peroxidase
[29] = molecular target: G145R HBsAg mutant of patient B** (HBV recurred after liver transplantation) (hepatitis B virus); test: as above
[30] = molecular target: T2, G145R HBsAg mutant of patient S** (HBV recurred after liver transplantation) (hepatitis B virus); test: as above
T2 construct: Position 145 of the HBV surface protein

[31] = molecular target: G145R HBsAg mutant of patient W** (HBV recurred after liver transplantation) (hepatitis B virus); test: as above
[32] = molecular target: G145R HBsAg mutant of patient L** (HBV recurred after liver transplantation) (hepatitis B virus); test: as above

B1: the antibody of the present invention comprising a heavy-chain variable region having amino acid sequence of SEQ ID NO: 2 and a light-chain variable region … (antibody, V domains shown)
VH: EVQLVESGGGLVKPGGSLRLSCSASGFSLTKYKMTWVRQAPGKGLEWVSSISSTSRDIDYADSVKGRFTISRDNAKNSLFLQMSSLRVDDTAVYYCTRDGWLWGWDVRSNYYYNALDVWGQGTTVTVSS
VL: DIVVTQSPSSLSASVGDRVTITCRASQGIYNSIAWYQQKPGKAPKLLLYSTSTLLSGVPSRFSGSGSGTDYTLTITNLQPEDFATYYCQQYFVTPETFGQGTKLEIKR
notes: Captured with goat anti-human IgG (Fc specific) agarose and compared with a human IgG1 isotype control, so a human IgG; also called rHBIG
B1 was tested, and the ELISA [1] was 3.52, the ELISA [2] was 2.73 and the ELISA [3] was 3.63. It also gave an ELISA [4] of 2.83, an ELISA [5] of 3.36 and an ELISA [6] of 3.56. For the same binder, the ELISA [7] was 3.61, the ELISA [8] was 3.5 and the ELISA [9] was 3.55. For the same binder, the ELISA [10] was 1.37, the ELISA [11] was 3.06 and the ELISA [12] was 2.95. For the same binder, the ELISA [13] was 2.93, the ELISA [14] was 3.08 and the A450 [15] was 1.16 A450. For the same binder, the A450 [16] was 0.356 A450, the A450 [17] was 0.815 A450 and the A450 [18] was 1.02 A450. It also gave an A450 [19] of 1.13 A450, an A450 [20] of 0.834 A450 and an A450 [21] of 1.1 A450. For the same binder, the A450 [22] was 1.04 A450, the A450 [23] was 1.14 A450 and the A450 [24] was 0.786 A450. For the same binder, the A450 [25] was 0.957 A450, the A450 [26] was 0.876 A450 and the A450 [27] was 1.07 A450. The “ELISA signal (name and unit not given)” value [28] was 2.47, the “ELISA signal (name and unit not given)” value [29] was 3.08 and the “ELISA signal (name and unit not given)” value [30] was 2.53. The “ELISA signal (name and unit not given)” value [31] was 2.66 and the “ELISA signal (name and unit not given)” value [32] was 2.72.
